Results on five molecules are retold here after US20200079833A1 (AstraZeneca / MedImmune, published 2020).

What all share (test): cell-based or functional assay
In experiment [1] the target is GLP-1 receptor (GLP-1R), primary cAMP assay (human, UniProt P43220 24-463).
In experiment [2] the target is glucagon receptor (GCGR), primary cAMP assay (human, UniProt P47871 26-477).
Experiment [3] deals with T1, glucose-dependent insulinotropic peptide (gastric inhibitory polypeptide) receptor (GIPR), primary cAMP assay (human, UniProt P48546 22-466).
T1 sequence (looked up): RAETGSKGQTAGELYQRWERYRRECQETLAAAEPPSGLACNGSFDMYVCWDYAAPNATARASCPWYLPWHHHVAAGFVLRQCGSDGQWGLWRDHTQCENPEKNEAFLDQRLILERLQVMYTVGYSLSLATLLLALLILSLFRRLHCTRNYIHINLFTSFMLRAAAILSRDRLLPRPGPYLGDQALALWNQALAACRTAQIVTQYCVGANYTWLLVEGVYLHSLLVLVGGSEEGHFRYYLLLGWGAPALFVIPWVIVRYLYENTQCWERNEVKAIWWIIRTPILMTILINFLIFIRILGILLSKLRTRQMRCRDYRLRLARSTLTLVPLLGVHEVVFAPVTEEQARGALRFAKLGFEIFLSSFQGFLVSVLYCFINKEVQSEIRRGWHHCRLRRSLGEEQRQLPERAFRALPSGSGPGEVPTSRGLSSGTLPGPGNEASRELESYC

The target in experiment [4] is T2, GLP-1R in the INS1e assay (UniProt P32301 22-463, limits assumed).
T2 sequence (looked up): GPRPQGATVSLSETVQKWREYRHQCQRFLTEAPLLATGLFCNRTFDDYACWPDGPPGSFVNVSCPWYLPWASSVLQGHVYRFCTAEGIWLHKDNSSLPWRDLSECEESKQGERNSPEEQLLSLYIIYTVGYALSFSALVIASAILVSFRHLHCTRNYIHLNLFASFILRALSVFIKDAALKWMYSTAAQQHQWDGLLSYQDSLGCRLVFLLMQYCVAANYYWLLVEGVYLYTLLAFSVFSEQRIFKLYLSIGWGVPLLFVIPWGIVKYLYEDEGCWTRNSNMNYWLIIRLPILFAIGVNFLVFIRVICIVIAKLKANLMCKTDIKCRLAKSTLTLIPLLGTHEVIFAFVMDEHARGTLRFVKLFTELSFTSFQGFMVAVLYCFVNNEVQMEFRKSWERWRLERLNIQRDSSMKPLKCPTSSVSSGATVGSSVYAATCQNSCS

In experiment [5] the target is GLP-1 receptor (GLP-1R), primary cAMP assay cell line (human, UniProt P43220 24-463).
The target of experiment [6] is glucagon receptor (GCGR), primary cAMP assay cell line (human, UniProt P47871 26-477).
Chain of glucagon receptor (GCGR), primary cAMP assay cell line (P47871 26-477): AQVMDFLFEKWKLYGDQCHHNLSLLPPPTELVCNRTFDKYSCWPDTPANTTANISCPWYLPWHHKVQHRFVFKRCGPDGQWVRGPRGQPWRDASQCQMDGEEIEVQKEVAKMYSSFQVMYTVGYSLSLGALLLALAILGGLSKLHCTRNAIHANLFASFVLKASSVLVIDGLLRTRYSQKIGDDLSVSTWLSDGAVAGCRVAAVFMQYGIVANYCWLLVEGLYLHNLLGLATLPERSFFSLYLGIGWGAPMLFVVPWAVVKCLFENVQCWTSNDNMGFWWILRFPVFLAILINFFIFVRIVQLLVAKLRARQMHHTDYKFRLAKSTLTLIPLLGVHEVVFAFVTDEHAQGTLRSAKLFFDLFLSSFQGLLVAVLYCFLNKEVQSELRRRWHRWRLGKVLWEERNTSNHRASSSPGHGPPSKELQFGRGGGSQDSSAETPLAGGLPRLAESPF
For experiment [7], the target named is T3, glucose-dependent insulinotropic peptide (gastric inhibitory polypeptide) receptor (GIPR), primary cAMP assay … (human, UniProt P48546 22-466).
T3 sequence (looked up): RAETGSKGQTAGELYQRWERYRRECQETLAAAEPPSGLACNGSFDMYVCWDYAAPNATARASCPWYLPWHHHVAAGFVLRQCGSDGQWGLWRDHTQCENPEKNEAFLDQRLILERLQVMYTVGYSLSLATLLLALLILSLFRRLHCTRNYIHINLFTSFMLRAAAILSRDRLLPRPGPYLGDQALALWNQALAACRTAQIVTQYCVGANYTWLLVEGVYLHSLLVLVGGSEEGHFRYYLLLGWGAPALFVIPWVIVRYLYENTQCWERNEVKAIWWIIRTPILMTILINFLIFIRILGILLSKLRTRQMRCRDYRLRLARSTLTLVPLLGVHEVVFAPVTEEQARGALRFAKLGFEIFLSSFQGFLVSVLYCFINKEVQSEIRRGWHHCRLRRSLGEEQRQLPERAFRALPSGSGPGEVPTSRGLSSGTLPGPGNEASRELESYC

The target of experiment [8] is T4, GLP-1R in the INS1e assay (UniProt P32301 22-463, limits assumed).
T4 sequence (looked up): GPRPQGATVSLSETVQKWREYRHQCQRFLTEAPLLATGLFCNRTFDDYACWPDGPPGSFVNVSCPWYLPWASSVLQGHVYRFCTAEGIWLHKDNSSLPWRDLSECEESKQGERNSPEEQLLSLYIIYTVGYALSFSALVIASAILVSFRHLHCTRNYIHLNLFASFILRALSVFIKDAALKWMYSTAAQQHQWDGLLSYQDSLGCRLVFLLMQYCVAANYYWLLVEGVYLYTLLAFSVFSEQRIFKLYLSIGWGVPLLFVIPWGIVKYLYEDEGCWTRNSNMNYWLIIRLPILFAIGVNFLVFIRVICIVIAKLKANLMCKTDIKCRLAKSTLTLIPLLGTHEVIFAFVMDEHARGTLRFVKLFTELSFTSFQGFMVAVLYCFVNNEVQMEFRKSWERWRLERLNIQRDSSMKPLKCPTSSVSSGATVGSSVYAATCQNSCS
This is another data set of the same source.

Starred links: 1 amine or outer side, 2 acyl side, 3 side chain; linkers in the order of their positions; H or OH if unused. Non-standard residues stand in square brackets, D forms with d. Groups on a side chain read outwards from the residue. Primed or numbered codes have the meaning given here. No end group written: not given here. *: point of attachment. Tyr(OMe) = COc1ccc(C[C@H](N[*:1])C(=O)[*:2])cc1; γGlu = O=C(O)[C@H](CCC(=O)[*:2])N[*:1]; Palmitoyl = CCCCCCCCCCCCCCCC(=O)*; αMeF = C[C@](N)(Cc1ccccc1)C(=O)O; αMeK = C[C@](N)(CCCCN)C(=O)O; Lauroyl = CCCCCCCCCCCC(=O)*; αMeS = C[C@](N)(CO)C(=O)O; PEG2′ = not defined here; Aib = CC(C)(N)C(=O)O

Chain of glucagon receptor (GCGR), primary cAMP assay (P47871 26-477): as the sequence (P47871 26-477) above

B1: SEQ ID NO: 409 (peptide)
peptide: H[Aib]EGS[αMeF]TSDV[αMeS]SK([PEG2′-PEG2′-γGlu-Palmitoyl])LEGEAA[αMeK]E[αMeF]IAK([PEG2′-PEG2′-γGlu-Palmitoyl])VVEGG-NH2
On to B1, for which, in experiment [1], the “Primary assay EC50 (cAMP) Mean” value is 36.1 pM; the “Primary assay EC50 (cAMP), n1” value was determined as 39.5 pM; the “Primary assay EC50 (cAMP), n2” value turned out to be 32.6 pM. In experiment [2], the “Primary assay EC50 (cAMP), n1” value amounted to 21.5 nM and the “Primary assay EC50 (cAMP), n2” value stood at 21.5 nM. In experiment [3], the “Primary assay EC50 (cAMP), n1” value came out at 21.5 nM and the “Primary assay EC50 (cAMP), n2” value amounted to 21.5 nM. Besides, in experiment [4], the “INS1e assay EC50 (cAMP) Mean” value worked out at 216 pM, the “INS1e assay EC50 (cAMP) n1” value is 183 pM and the “INS1e assay EC50 (cAMP) n2” value turned out to be 249 pM.

B2: SEQ ID NO: 406 (peptide)
peptide: H[Aib]EGS[αMeF]TSDV[αMeS]SK([PEG2′-PEG2′-γGlu-Lauroyl])LEGEAA[αMeK]E[Tyr(OMe)]IAK([PEG2′-PEG2′-γGlu-Lauroyl])VVEGG-NH2
Take B2: in experiment [1], the “Primary assay EC50 (cAMP) Mean” value was 2.3 pM; the “Primary assay EC50 (cAMP), n1” value turned out to be 2.19 pM; the “Primary assay EC50 (cAMP), n2” value came out at 2.31 pM. For the same molecule, in experiment [2], the “Primary assay EC50 (cAMP), n1” value came out at 21.5 nM and the “Primary assay EC50 (cAMP), n2” value was determined as 21.5 nM. In addition, in experiment [3], the “Primary assay EC50 (cAMP), n1” value stood at 21.5 nM and the “Primary assay EC50 (cAMP), n2” value is 21.5 nM. In addition, in experiment [4], the “INS1e assay EC50 (cAMP) Mean” value stood at 94 pM, the “INS1e assay EC50 (cAMP) n1” value stood at 101 pM and the “INS1e assay EC50 (cAMP) n2” value stood at 87.2 pM.

B3: SEQ ID NO: 458 (peptide)
peptide: H[Aib]EGS[αMeF]TSDK([PEG2′-PEG2′-γGlu-Lauroyl])SSYLEGEAA[αMeK]K([PEG2′-PEG2′-γGlu-Lauroyl])FIAK([PEG2′-PEG2′-γGlu-Lauroyl])VVEGG-NH2
For B3, in experiment [5], the “cAMP Primary assay EC50, Mean pM GLP-1R” value came out at 41.4 pM; the “cAMP Primary assay EC50, n1” value came out at 36.3 pM; the “cAMP Primary assay EC50, n2” value came to 46.4 pM. For the same molecule, in experiment [6], the “cAMP Primary assay EC50, n1” value is 20 nM and the “cAMP Primary assay EC50, n2” value came to 20 nM. Further, in experiment [7], the “cAMP Primary assay EC50, n1” value came out at 20 nM and the “cAMP Primary assay EC50, n2” value turned out to be 20 nM. Moreover, in experiment [8], the “cAMP INS1e assay EC50, Mean pM GLP-1R” value turned out to be 3370 pM; the “cAMP INS1e assay EC50, n1” value is 3.07 nM; the “cAMP INS1e assay EC50, n2” value is 3.67 nM.

B4: SEQ ID NO: 454 (peptide)
peptide: H[Aib]EGS[αMeF]TSDV[αMeS]SYK([PEG2′-PEG2′-γGlu-Lauroyl])EGEAA[αMeK]K([PEG2′-PEG2′-γGlu-Lauroyl])FIK([PEG2′-PEG2′-γGlu-Lauroyl])FVVEGG-NH2
As to B4, in experiment [5], the “cAMP Primary assay EC50, Mean pM GLP-1R” value came to 43.7 pM; the “cAMP Primary assay EC50, n1” value was 22.1 pM; the “cAMP Primary assay EC50, n2” value stood at 65.2 pM. Besides, in experiment [6], the “cAMP Primary assay EC50, n1” value turned out to be 19.7 nM and the “cAMP Primary assay EC50, n2” value worked out at 19.7 nM. Besides, in experiment [7], the “cAMP Primary assay EC50, n1” value came to 19.7 nM and the “cAMP Primary assay EC50, n2” value was determined as 19.7 nM. Moreover, in experiment [8], the “cAMP INS1e assay EC50, Mean pM GLP-1R” value amounted to 5540 pM; the “cAMP INS1e assay EC50, n1” value is 4.1 nM; the “cAMP INS1e assay EC50, n2” value was determined as 6.99 nM.

B5: SEQ ID NO: 450 (peptide)
peptide: H[Aib]EGS[αMeF]TSDV[αMeS]SK([PEG2′-PEG2′-γGlu-Lauroyl])LEGEAA[αMeK]K([PEG2′-PEG2′-γGlu-Lauroyl])FIK([PEG2′-PEG2′-γGlu-Lauroyl])FVVEGG-NH2
As to B5, in experiment [5], the “cAMP Primary assay EC50, Mean pM GLP-1R” value was 49 pM; the “cAMP Primary assay EC50, n1” value worked out at 28 pM; the “cAMP Primary assay EC50, n2” value was 70 pM. In experiment [6], the “cAMP Primary assay EC50, n1” value worked out at 19.9 nM and the “cAMP Primary assay EC50, n2” value was 19.9 nM. Besides, in experiment [7], the “cAMP Primary assay EC50, n1” value was 19.9 nM and the “cAMP Primary assay EC50, n2” value turned out to be 19.9 nM. In experiment [8], the “cAMP INS1e assay EC50, Mean pM GLP-1R” value came to 6810 pM; the “cAMP INS1e assay EC50, n1” value came out at 6.38 nM; the “cAMP INS1e assay EC50, n2” value turned out to be 7.24 nM.
